Sequences and labels used below:
B3: baculovirus-expressed S. purpuratus katanin p60 subunit with N-terminal His(6) tag (enzyme)
chain: HHHHHHMSVDEICENTKMGREYALLGNYETSLVYYQGVLQQIQKLLTSVHEPQRKHQWQTIRQELSQEYEHVKNITKTLNGFKSEPAAPEPAPNHRAAPFSHHQHAAKPAAAEPARDPDVWPPPTPVDHRPSPPYQRAARKDPPRRSEPSKPANRAPGNDRGGRGPSDRRGDARSGGGGRGGARGSDKDKNRGGKSDKDKKAPSGEEGDEKKFDPAGYDKDLVENLERDIVQRNPNVHWADIAGLTEAKRLLEEAVVLPLWMPDYFKGIRRPWKGVLMVGPPGTGKTMLAKAVATECGTTFFNVSSASLTSKYHGESEKLVRLLFEMARFYAPSTIFIDEIDSICSKRGTGSEHEASRRVKSELLIQMDGVSGPSAGEESSKMVMVLAATNFPWDIDEALRRRLEKRIYIPLPEIDGREQLLRINLKEVPLADDIDLKSIAEKMDGYSGADITNVCRDASMMAMRRRIQGLRPEEIRHIPKEELNQPSTPADFLLALQKVSKSVGKEDLVKYMAWMEEFGSV
notes: Expressed from pFastBac HT in Sf9 cells; also called p60 katanin; recombinant p60
B4: baculovirus-expressed S. purpuratus katanin p80 subunit with N-terminal His(6) tag (other)
chain: HHHHHHMATKRAWKLQELVAHSSNVNCLALGPMSGRVMVTGGEDKKVNLWAVGKQNCIISLSGHTSPVDSVKFNSSEELVVAGSQSGTMKIYDLEPAKIVRTLTGHRNSIRCMDFHPFGEFVASGSTDTNVKLWDVRRKGCIYTYKGHSDQVNMIKFSPDGKWLVTASEDTTIKLWDLTMGKLFQEFKNHTGGVTGIEFHPNEFLLASGSSDRTVQFWDLETFQLVSSTSPGASAVRSISFHPDGSYLFCSSQDMLHAFGWEPIRCFDTFSVGWGKVADTVIASTQLIGASFNATNVSVYVADLSRMSTTGIAQEPQSQPSKTPSGGAEEVPSKPLTASGRKNFVRERPHTTSSKQRQPDVKSEPERQSPTQDEGVKDDDATDIKDPDSYAKIFSPKTRVDHSPERNAQPFPAPLDVPGAQEPEPFKHPPKPAAAAAVAPVSRAPAPSASDWQPAQANPAPNRVPAATKPVPAQEVAPSRKPDPISTIIPSDRNKPANLDMDAFLPPAHAQQAPRVNAPASRKQSDSERIEGLRKGHDSMCQVLSSRHRNLDVVRAIWTAGDAKTSVESVVNMKDQAILVDILNIMLLKKSLWNLDMCVVVLPRLKELLSSKYENYVHTSCACLKLILKNFTSLFNQNIKCPPSGIDITREERYNKCSKCYSYLIATRGYVEEKQHVSGKLGSSFRELHLLLDQLE
notes: Expressed from pFastBac HT in Sf9 cells; also called p80 katanin; recombinant p80

Data set [1] deals with T1, in vitro translated S. purpuratus p60 katanin with 37 amino acid N-terminal S-Tag (Strongylocentrotus purpuratus, UniProt O61577 1-516).
T1 construct: Made in a rabbit reticulocyte coupled transcription-translation reaction; not shown: 37 amino acid N-terminal S-Tag from pCITE-4a+ (Novagen)
Put plainly: co-translation in rabbit reticulocyte lysate, immunoprecipitation with anti-p60 antibody. The procedure:
(§1) In vitro synthesis of proteins directly from plasmid DNAs was accomplished using the Single Tube Protein System 2, T7 (Novagen). […] For immunoprecipitations, lysates were incubated on ice with Pansorbin (Calbiochem)-antibody complexes, washed in NET buffer (50 mM Tris-Cl (pH 7.5), 150 mM NaCl, 0.1% Nonidet P40, 1 mM EDTA (pH 8.0), 0.25% gelatin and 0.02% sodium azide), then resuspended in SDS-PAGE sample buffer. In vitro translation products in both the pellets and supernatants from the immunoprecipitations were resolved by SDS-PAGE, transferred to nitrocellulose, probed with S-protein HRP conjugate (Novagen) and detected by chemiluminescence.

Data set [2] concerns the target T2, native S. purpuratus katanin p80 subunit (sea urchin cytosol) (Strongylocentrotus purpuratus, UniProt O61585 1-690).
T2 construct: Endogenous protein of sea urchin eggs
T2 sequence: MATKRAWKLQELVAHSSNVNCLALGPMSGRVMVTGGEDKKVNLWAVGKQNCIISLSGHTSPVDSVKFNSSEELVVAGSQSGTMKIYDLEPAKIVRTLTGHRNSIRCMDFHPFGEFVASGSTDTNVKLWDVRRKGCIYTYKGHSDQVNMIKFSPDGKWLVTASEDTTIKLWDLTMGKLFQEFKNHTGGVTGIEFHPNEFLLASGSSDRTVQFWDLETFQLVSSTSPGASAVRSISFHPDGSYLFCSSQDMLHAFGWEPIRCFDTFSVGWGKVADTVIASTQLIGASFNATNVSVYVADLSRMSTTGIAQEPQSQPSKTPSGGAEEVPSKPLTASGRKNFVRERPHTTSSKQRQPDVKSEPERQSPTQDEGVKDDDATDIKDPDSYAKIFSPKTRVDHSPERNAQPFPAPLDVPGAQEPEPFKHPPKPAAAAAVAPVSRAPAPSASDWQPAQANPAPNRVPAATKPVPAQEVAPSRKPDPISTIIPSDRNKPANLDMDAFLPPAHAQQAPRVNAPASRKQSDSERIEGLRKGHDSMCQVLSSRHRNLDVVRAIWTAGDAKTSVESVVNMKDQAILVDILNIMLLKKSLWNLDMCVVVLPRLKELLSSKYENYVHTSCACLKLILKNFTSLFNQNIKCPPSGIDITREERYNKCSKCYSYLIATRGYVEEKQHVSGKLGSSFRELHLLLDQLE
Put plainly: immunoprecipitation from sea urchin cytosol.

Data set [3] concerns the molecule itself. Put plainly: rotary-shadowing electron microscopy of recombinant p60 on mica. The method, then:
Proteins were adsorbed to mica, freeze-dried, and platinum replicated according to established procedures (Heuser (1989) *J. Electron Microsc. Technique* 13):, 244–263; Heuser (1983) *J. Mol. Biol.* 169: 155–195). Sample preparation and imaging were similar to that used in the imaging of NSF (Hanson et al. (1997) *Cell* 90: 523–535), except that mica flakes were washed with a buffer consisting of 10 mM K-HEPES (pH 7.5), 2 mM MgCl_2, 1 mM nucleotide (ATP or ATP-γ-S).

The target in data set [4] is B4. Put plainly: co-immunoprecipitation from insect cells coinfected with p60 and p80 baculoviruses. The procedure: Proteins bound to the resin were analyzed by SDS-PAGE followed by staining with Coomassie.
The immunoprecipitations were incubated at 4° C. for 1–2 hr, washed five times with 1 ml of ice-cold TBST, and eluted in SDS-containing sample buffer.

Data set [5] deals with B3. Put plainly: baculovirus co-expression, metal affinity purification, Coomassie staining. The text has this:
We therefore sought to express the two subunits together and separately and then test their enzymatic activities.

The target in data set [6] is T1, in vitro translated S. purpuratus p60 …. Put plainly: co-translation in rabbit reticulocyte lysate, co-immunoprecipitation with anti-p60 antibody. The method, then:
as §1

B1: p80 delta 303-690 (C-terminal truncation of S. purpuratus p80 katanin containing only the WD40 domain), in vitro translated with N-terminal S-Tag (other)
chain: MATKRAWKLQELVAHSSNVNCLALGPMSGRVMVTGGEDKKVNLWAVGKQNCIISLSGHTSPVDSVKFNSSEELVVAGSQSGTMKIYDLEPAKIVRTLTGHRNSIRCMDFHPFGEFVASGSTDTNVKLWDVRRKGCIYTYKGHSDQVNMIKFSPDGKWLVTASEDTTIKLWDLTMGKLFQEFKNHTGGVTGIEFHPNEFLLASGSSDRTVQFWDLETFQLVSSTSPGASAVRSISFHPDGSYLFCSSQDMLHAFGWEPIRCFDTFSVGWGKVADTVIASTQLIGASFNATNVSVYVADLSRMS
notes: the residues kept are derived from the deletion named; also called delta 303-690 derivative of p80; not shown: 37 amino acid N-terminal S-Tag from pCITE-4a+ (Novagen)
As to B1, the binding result in data set [1] is on record as “no binding”.

B2: native S. purpuratus katanin p60 subunit (unfertilized egg extract / cytosol) (enzyme)
chain: MSVDEICENTKMGREYALLGNYETSLVYYQGVLQQIQKLLTSVHEPQRKHQWQTIRQELSQEYEHVKNITKTLNGFKSEPAAPEPAPNHRAAPFSHHQHAAKPAAAEPARDPDVWPPPTPVDHRPSPPYQRAARKDPPRRSEPSKPANRAPGNDRGGRGPSDRRGDARSGGGGRGGARGSDKDKNRGGKSDKDKKAPSGEEGDEKKFDPAGYDKDLVENLERDIVQRNPNVHWADIAGLTEAKRLLEEAVVLPLWMPDYFKGIRRPWKGVLMVGPPGTGKTMLAKAVATECGTTFFNVSSASLTSKYHGESEKLVRLLFEMARFYAPSTIFIDEIDSICSKRGTGSEHEASRRVKSELLIQMDGVSGPSAGEESSKMVMVLAATNFPWDIDEALRRRLEKRIYIPLPEIDGREQLLRINLKEVPLADDIDLKSIAEKMDGYSGADITNVCRDASMMAMRRRIQGLRPEEIRHIPKEELNQPSTPADFLLALQKVSKSVGKEDLVKYMAWMEEFGSV
notes: Endogenous protein of sea urchin eggs; also called 60 kDa polypeptide
On to B2, for which the binding result in data set [2] is recorded as “binds”. On to B3, for which the binding result in data set [3] and in data set [4] was “binds” in each case. For the molecule B4, in data set [5], the “p60:p80 molar ratio in the purified co-expressed protein” value was approximately 0.9 mol p80 per mol p60.

B5: p80 delta 1-302 (S. purpuratus p80 katanin with the entire WD40 domain deleted), in vitro translated with N-terminal S-Tag (other)
chain: TTGIAQEPQSQPSKTPSGGAEEVPSKPLTASGRKNFVRERPHTTSSKQRQPDVKSEPERQSPTQDEGVKDDDATDIKDPDSYAKIFSPKTRVDHSPERNAQPFPAPLDVPGAQEPEPFKHPPKPAAAAAVAPVSRAPAPSASDWQPAQANPAPNRVPAATKPVPAQEVAPSRKPDPISTIIPSDRNKPANLDMDAFLPPAHAQQAPRVNAPASRKQSDSERIEGLRKGHDSMCQVLSSRHRNLDVVRAIWTAGDAKTSVESVVNMKDQAILVDILNIMLLKKSLWNLDMCVVVLPRLKELLSSKYENYVHTSCACLKLILKNFTSLFNQNIKCPPSGIDITREERYNKCSKCYSYLIATRGYVEEKQHVSGKLGSSFRELHLLLDQLE
notes: the residues kept are derived from the deletion named; also called truncated p80; delta 1-302 derivative of p80; not shown: 37 amino acid N-terminal S-Tag from pCITE-4a+ (Novagen)
For the molecule B5, in data set [6], the binding result is “binds”.
